According to US11254720B2, “Methods and systems for designing and/or characterizing soluble lipidated ligand agents” (Tufts Medical Center, priority 2013, dated 2022):

Legend:
[1] = biological target: T1, CCK1R (Homo sapiens, UniProt P32238); experiment: SRE-luciferase agonist assay in transfected HEK293 cells; format: cell-based; settings: tethered ligand cDNA cotransfected, 24 hours
T1 construct: expressed in transfected cells; host or cells: HEK293
T1 sequence (P32238 1-428): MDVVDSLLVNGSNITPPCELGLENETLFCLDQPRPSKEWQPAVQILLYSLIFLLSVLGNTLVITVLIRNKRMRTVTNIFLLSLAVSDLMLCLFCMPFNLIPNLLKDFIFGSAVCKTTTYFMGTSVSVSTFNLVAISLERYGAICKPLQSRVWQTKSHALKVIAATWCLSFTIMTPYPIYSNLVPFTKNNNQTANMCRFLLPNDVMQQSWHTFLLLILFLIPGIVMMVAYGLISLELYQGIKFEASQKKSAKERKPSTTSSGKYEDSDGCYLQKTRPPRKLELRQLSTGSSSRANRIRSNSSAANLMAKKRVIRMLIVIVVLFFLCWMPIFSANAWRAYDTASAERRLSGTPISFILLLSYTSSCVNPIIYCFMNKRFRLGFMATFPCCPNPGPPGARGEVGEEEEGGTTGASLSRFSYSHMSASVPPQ
Method: (§1) A) Tethered CCK4-Gly activates the CCK2 receptor (left panel). Potency of the corresponding soluble lipidated ligand agent (1-CCK4-Gly) exceeds that of soluble CCK-4-Gly (right panel). […] HEK293 cells were transiently cotransfected with cDNAs encoding: the designated CCK receptor subtype, a 5X-SRE-Luc-pest reporter gene (pGL4.33), tethered ligand (as indicated) and a β-galactosidase gene to control for transfection efficiency. Tethered ligand activity was measured 24 hours following transfection. To assess activity of soluble and lipidated CCK-4-Gly, cells were stimulated for 4 hours with ligand. Both soluble and tethered ligand activity was quantified relative to a parallel preparation of CCK receptor expressing cells stimulated for 4 hours with soluble amidated CCK-4 (s-CCK4-NH2, 10 μM) for CCK-2R and soluble amidated CCK-8 (s-CCK8-NH2, 10 μM) for CCK-1R.
(§2) Neurokinin receptors were purchased from the Missouri S+T cDNA Resource center. […] The nucleotide sequences of all receptor coding regions and tethered ligands were confirmed by automated DNA sequencing and analyzed using Vector NTI software (Invitrogen).

[2] = biological target: T2, CCK2R (Homo sapiens, UniProt P32239); experiment: as above; format: cell-based; settings: tethered ligand cDNA cotransfected, 24 hours
T2 construct: expressed in transfected cells; host or cells: HEK293
T2 sequence (P32239 1-447): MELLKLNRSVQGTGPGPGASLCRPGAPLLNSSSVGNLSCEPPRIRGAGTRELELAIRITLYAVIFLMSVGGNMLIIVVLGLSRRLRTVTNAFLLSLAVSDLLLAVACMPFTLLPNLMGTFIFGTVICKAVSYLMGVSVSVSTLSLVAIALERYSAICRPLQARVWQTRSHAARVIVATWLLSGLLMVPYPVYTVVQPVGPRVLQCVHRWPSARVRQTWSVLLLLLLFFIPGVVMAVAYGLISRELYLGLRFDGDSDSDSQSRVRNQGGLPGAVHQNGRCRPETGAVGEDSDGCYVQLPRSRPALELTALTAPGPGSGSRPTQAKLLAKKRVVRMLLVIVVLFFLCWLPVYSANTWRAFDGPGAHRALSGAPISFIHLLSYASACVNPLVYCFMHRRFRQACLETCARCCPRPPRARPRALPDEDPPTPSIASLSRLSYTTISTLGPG
Method: as §1, §2

Activity of membrane-tethered ligand at CCK1R [1]: no activity
Substance: tCCK4-Gly: membrane-tethered glycine extended CCK4 (WMDFG) (chain (part 1 of 2) MSTSMIRDVELAEEALPKKTGGPQGSRRCLFSLFIVAGATTLFCLLHFGVI; left off: small tags and cut ends)
Activity of membrane-tethered ligand at CCK2R [2]: activated the CCK2R in a concentration dependent manner
